Test results: paper PMC5253651, “Human farnesyl pyrophosphate synthase is allosterically inhibited by its own product” (Nature Communications, 2017)

Target: the molecule itself
Experiment: crystal structure; human FPPS (10 mg/ml) crystallised with 1 mM FPP and 2 mM MgCl2, sitting drop, 22 °C; 1.9 Å; one subunit in the asymmetric unit, biological assembly a homodimer

B1: Human farnesyl pyrophosphate synthase (enzyme)
chain: MNGDQNSDVYAQEKQDFVQHFSQIVRVLTEDEMGHPEIGDAIARLKEVLEYNAIGGKYNRGLTVVVAFRELVEPRKQDADSLQRAWTVGWCVELLQAFFLVADDIMDSSLTRRGQICWYQKPGVGLDAINDANLLEACIYRLLKLYCREQPYYLNLIELFLQSSYQTEIGQTLDLLTAPQGNVDLVRFTEKRYKSIVKYKTAFYSFYLPIAAAMYMAGIDGEKEHANAKKILLEMGEFFQIQDDYLDLFGDPSVTGKIGTDIQDNKCSWLVVQCLQRATPEQYQILKENYGQKEAEKVARVKALYEELDLPAVFLQYEEDSYSHIMALIEQYAAPLPPAVFLGLARKIYKRRK
notes: Human farnesyl pyrophosphate synthase (FPPS), UniProt P14324 as printed; Crystallised with the small molecule FPP in the allosteric pocket; One subunit in the asymmetric unit; the homodimer arises by crystallographic symmetry; also called FPPS; human FPPS; source: E. coli BL21 (DE3), purified (Ni-nitrilotriacetic acid, Superdex 200 size-exclusion chromatography)
- binding result: binds
